{"source": "paper PMC2151650", "molecular_target": "triadin (rabbit) (UniProt Q28820)", "sequence (Q28820 whole entry)": "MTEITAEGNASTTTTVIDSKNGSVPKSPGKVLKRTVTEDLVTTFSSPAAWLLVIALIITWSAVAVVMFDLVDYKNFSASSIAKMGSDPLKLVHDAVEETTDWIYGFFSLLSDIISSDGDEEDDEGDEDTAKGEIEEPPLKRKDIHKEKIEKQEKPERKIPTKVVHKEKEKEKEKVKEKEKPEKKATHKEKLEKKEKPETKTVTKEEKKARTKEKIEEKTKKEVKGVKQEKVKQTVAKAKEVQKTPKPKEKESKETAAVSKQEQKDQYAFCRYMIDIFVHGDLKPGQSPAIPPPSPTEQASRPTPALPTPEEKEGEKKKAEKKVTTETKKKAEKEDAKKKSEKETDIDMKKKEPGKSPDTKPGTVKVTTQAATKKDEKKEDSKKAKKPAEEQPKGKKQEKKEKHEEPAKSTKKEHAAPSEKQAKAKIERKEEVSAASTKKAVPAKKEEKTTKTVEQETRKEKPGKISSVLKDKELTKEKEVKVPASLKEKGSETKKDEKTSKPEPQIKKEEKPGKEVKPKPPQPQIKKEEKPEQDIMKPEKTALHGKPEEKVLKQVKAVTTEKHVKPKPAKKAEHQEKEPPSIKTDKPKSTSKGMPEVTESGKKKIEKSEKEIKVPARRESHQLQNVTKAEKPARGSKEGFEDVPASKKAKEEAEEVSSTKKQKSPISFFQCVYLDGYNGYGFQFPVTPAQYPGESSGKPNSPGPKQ", "experiment": "co-IP", "data": [{"substance": "RyR1 D4878A/D4907A, P11716 1-5037 (natural protein)", "values": [{"measurement": "percent reduction in triadin binding against WT RyR1", "result": 50, "unit": "%"}]}]}
